Laboratory results as given in US20130280318A1, “Tissue Scaffolds for Controlled Release of Active Agents” (The Trustees of Columbia University in the City of New York, priority 2010, published 2013).

System: Chondrocytes
Assay: Chondrocyte growth on scaffolds (total DNA, Picogreen)
Format: cell-based, bovine
Conditions: TGF-β3 released from tissue scaffold
Protocol: Chondrocytes enzymatically digested from bovine calves (6×10^4 cells/cm^2) were cultured on scaffolds in serum-free ITS+ media. Experimental group included PLGA-TGFβ3 scaffolds, while cells cultured on PLGA and on PLGA with exogenous TGF-β3 (1 ng/mL) served as controls. Viability was evaluated with confocal microscopy (n=3).
Total DNA (n=6) was quantified by Picogreen Assay. Glycosaminoglycan (GAG) and collagen syntheses (n=6) were assessed by dimethylmethylene blue (DMMB) and Sircol assays, respectively. Gene expressions (Col I, II, and X) were analyzed by RT-PCR (n=4).

B1: transforming growth factor-beta 3 (protein, UniProt P10600 301-412, looked up)
Transforming growth factor …: ALDTNYCFRNLEENCCVRPLYIDFRQDLGWKWVHEPKGYYANFCSGPCPYLRSADTTHSTVLGLYNTLNPEASASPCCVPQDLEPLTILYYVGRTPKVEQLSNMVVKSCKCS
modifications: Transforming growth factor beta-3
- bioactivity of released TGF-β3 (chondrocyte proliferation and biosynthesis): bioactive
